Results as given in paper PMC3069016 (Molecular Biology of the Cell, 2011).

Target: T1, Csn10-CBP-A2 (S. cerevisiae, UniProt Q12348 1-645)
T1 sequence (looked up): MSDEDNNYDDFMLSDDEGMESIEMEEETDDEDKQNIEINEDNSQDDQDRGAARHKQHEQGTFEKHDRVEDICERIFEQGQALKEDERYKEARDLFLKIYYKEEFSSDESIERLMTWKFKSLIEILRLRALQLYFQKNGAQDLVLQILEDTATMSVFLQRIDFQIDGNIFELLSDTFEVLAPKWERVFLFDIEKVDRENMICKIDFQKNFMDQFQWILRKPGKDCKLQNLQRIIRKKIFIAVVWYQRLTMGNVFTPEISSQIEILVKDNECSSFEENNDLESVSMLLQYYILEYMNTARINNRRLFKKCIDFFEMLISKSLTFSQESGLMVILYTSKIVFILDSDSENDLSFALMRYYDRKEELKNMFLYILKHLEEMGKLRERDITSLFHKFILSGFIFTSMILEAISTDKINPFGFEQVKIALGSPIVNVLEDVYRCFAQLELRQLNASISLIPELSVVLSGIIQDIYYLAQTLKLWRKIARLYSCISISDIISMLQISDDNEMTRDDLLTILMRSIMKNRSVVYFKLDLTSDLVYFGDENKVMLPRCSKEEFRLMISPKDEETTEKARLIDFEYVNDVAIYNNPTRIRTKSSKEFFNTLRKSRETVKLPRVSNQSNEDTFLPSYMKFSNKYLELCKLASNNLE
Assay: affinity purification with mass spectrometry

B1: Rpn5 (natural protein, S. cerevisiae, UniProt Q12250 1-445, looked up)
chain: MSRDAPIKADKDYSQILKEEFPKIDSLAQNDCNSALDQLLVLEKKTRQASDLASSKEVLAKIVDLLASRNKWDDLNEQLTLLSKKHGQLKLSIQYMIQKVMEYLKSSKSLDLNTRISVIETIRVVTENKIFVEVERARVTKDLVEIKKEEGKIDEAADILCELQVETYGSMEMSEKIQFILEQMELSILKGDYSQATVLSRKILKKTFKNPKYESLKLEYYNLLVKISLHKREYLEVAQYLQEIYQTDAIKSDEAKWKPVLSHIVYFLVLSPYGNLQNDLIHKIQNDNNLKKLESQESLVKLFTTNELMRWPIVQKTYEPVLNEDDLAFGGEANKHHWEDLQKRVIEHNLRVISEYYSRITLLRLNELLDLTESQTETYISDLVNQGIIYAKVNRPAKIVNFEKPKNSSQLLNEWSHNVDELLEHIETIGHLITKEEIMHGLQAK
  stoichiometry N: 1
